Results on two substances are retold here after publication PMC4126857.

The target of assay [1] is Drosophila Plk4 cryptic polo box (DmPlk4 CPB), aa 383-601 (Drosophila) (UniProt O97143). Kind of assay: MST.
Assay [2] concerns the target ZYG-1 cryptic polo box (CPB), aa 338-564 (C. elegans) (UniProt Q9GT24). Kind of assay: MST.

Chain of Drosophila Plk4 cryptic polo box (DmPlk4 CPB), aa 383-601 (Drosophila) (O97143 383-601): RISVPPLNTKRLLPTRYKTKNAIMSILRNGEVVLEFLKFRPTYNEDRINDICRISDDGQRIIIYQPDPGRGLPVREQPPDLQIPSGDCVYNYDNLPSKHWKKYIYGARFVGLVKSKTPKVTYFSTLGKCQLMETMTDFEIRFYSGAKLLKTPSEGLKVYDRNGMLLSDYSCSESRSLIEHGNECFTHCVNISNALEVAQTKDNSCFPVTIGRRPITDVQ
Chain of ZYG-1 cryptic polo box (CPB), aa 338-564 (C. elegans) (Q9GT24 338-564): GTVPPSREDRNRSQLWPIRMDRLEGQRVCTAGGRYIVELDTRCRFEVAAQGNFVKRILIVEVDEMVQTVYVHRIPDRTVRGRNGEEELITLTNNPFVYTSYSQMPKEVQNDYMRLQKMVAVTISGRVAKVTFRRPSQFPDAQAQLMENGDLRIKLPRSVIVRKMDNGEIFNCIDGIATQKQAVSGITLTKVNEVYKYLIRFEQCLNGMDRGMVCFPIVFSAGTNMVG

As a reminder, the Kd is the constant that tells how readily two partners part at equilibrium. In turn, “MmAsl acidic region (MmAsl AR), MST ligand (from UniProt A2AUM9 1-1736) (domain or fragment)” registered a dissociation constant (Kd) in assay [1] of 0.72 µM.

Consider “MmSPD-2 acidic region (MmSPD-2 AR), MST ligand (from UniProt E9Q4Y4 1-2514) (domain or fragment)”, for which the Kd in assay [1] came to 0.53 µM; in assay [2], 5.17 µM.
